Data from article PMC3433420.
Values joined by “and” are separate entries in the source; they are usually repeats but may differ in a detail not shown here. Equal values may be shown once.

Columns and labels:
Test in all cases: peptide or protein array; SH2/PTB proteins spotted on aldehyde slides, rhodamine peptide titrated in buffer B (20 mM HEPES, 100 mM KCl, 0.1% Tween-20, 5 mM DTT, pH 7.8), 1 h at room temperature; replicate assays
[1] = target: BLNK SH2 domain (human) (UniProt Q8WV28)
[2] = target: FGR SH2 domain (human) (UniProt P09769)
[3] = target: GRB10 SH2 domain (human) (UniProt Q13322)
GRB10 SH2 domain (human), sequence (Q13322 493-574): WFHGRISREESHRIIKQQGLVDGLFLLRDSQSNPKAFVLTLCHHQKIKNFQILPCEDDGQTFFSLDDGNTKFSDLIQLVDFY

[4] = target: GRB7 SH2 domain (human) (UniProt Q14451)
GRB7 SH2 domain (human), sequence (Q14451 431-527): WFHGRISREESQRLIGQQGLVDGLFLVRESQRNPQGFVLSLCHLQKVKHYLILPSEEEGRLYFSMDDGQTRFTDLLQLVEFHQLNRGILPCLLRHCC

[5] = target: ITK SH2 domain (human) (UniProt Q08881)
ITK SH2 domain (human), sequence (Q08881 239-338): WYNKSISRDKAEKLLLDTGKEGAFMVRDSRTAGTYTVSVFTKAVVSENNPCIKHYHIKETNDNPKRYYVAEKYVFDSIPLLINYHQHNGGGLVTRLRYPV

[6] = target: LCK SH2 domain (human) (UniProt P06239)
LCK SH2 domain (human), sequence (P06239 127-224): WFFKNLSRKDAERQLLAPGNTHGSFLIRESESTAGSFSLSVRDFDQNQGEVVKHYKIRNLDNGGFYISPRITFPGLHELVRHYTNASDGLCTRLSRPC

[7] = target: LYN SH2 domain (human) (UniProt P07948)
LYN SH2 domain (human), sequence (P07948 129-226): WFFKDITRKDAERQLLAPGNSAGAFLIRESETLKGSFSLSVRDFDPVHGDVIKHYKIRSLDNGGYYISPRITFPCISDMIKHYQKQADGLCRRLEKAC

[8] = target: PTPN11 tandem SH2 domains (human)
[9] = target: SH2B3 SH2 domain (human) (UniProt Q9UQQ2)
SH2B3 SH2 domain (human), sequence (Q9UQQ2 364-462): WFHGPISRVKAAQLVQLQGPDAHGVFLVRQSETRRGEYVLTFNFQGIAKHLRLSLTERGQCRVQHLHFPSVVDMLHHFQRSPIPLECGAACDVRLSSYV

[10] = target: SH2D1A SH2 domain (human) (UniProt O60880)
SH2D1A SH2 domain (human), sequence (O60880 6-104): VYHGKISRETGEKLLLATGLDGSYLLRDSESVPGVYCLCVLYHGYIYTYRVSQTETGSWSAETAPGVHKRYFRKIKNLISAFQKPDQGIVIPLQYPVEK

[11] = target: SH2D1B SH2 domain (human) (UniProt O14796)
SH2D1B SH2 domain (human), sequence (O14796 5-101): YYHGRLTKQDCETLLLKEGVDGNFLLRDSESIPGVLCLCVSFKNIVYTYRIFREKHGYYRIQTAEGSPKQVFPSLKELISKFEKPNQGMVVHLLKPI

[12] = target: SH2D3C SH2 domain (human) (UniProt Q8N5H7)
SH2D3C SH2 domain (human), sequence (Q8N5H7 220-319): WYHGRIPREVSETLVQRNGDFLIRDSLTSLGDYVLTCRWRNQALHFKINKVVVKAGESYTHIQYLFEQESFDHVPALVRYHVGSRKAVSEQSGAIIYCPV

[13] = target: SH3BP2 SH2 domain (human) (UniProt P78314)
SH3BP2 SH2 domain (human), sequence (P78314 457-555): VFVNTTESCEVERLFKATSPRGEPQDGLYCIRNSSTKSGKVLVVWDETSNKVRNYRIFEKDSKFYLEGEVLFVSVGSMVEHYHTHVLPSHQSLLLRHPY

[14] = target: SRC SH2 domain (human) (UniProt P12931)
[15] = target: SYK N-terminal SH2 domain (human)
[16] = target: TEC SH2 domain (human) (UniProt P42680)
TEC SH2 domain (human), sequence (P42680 247-345): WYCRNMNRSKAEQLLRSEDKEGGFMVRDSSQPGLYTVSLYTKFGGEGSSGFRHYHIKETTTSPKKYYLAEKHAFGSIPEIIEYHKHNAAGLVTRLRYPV

[17] = target: TNS3 SH2 domain (human) (UniProt Q68CZ2)
TNS3 SH2 domain (human), sequence (Q68CZ2 1172-1282): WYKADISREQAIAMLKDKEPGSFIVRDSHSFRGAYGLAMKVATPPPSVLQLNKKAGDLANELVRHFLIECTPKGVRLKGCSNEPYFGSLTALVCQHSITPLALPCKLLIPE

[18] = target: YES1 SH2 domain (human) (UniProt P07947)
YES1 SH2 domain (human), sequence (P07947 158-255): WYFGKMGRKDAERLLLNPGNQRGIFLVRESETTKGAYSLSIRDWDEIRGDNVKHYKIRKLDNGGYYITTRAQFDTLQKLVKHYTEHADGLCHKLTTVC

[19] = target: ZAP70 tandem SH2 domains (human)

BLNK SH2 domain (human), sequence (Q8WV28 346-453): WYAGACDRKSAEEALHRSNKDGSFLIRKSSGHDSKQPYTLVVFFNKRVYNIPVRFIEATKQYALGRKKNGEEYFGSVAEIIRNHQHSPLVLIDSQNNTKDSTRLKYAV

Kd [1]: 1640 nM | Kd [2]: 201 nM and 401 nM | Kd [3]: 1500 nM | Kd [4]: 341 nM | Kd [5]: 401 nM and 802 nM | Kd [6]: 214 nM and 375 nM | Kd [7]: 201 nM and 579 nM | Kd [8]: 536 nM | Kd [9]: 1630 nM | Kd [10]: 413 nM and 591 nM | Kd [11]: 612 nM | Kd [12]: 1440 nM and 1160 nM | Kd [13]: 403 nM and 1470 nM | Kd [14]: 403 nM and 2100 nM | Kd [15]: 319 nM and 593 nM | Kd [16]: 407 nM and 1190 nM | Kd [17]: 373 nM and 742 nM | Kd [18]: 111 nM and 329 nM | Kd [19]: 2710 nM and 1630 nM
Substance: ErbB4 pY1262 phosphopeptide, rhodamine-labelled, for protein microarrays
